Laboratory results from the DeepSol protein solubility set.

Assay: soluble on expression in E. coli; label from the status in PepcDB or PDB records

MGSDKIHHHHHHMPRPAPRVTNSPMNTSPTWGVVATVKAPEHEILRFAAWHLELGAHRLFLYLDDPDPAVFARLKAHPRIRVFACDDSYWQRRKLSRPVKHQARQTMNARHAYNRADVDWLAHIDVDEFIWSETPIAAVLSGLPDDTLCARMRPIEALAGGDALYKAFIPGGPARDGIVRRLYPTFGAFVKGGFMSHVAGKVFARTGMEKVDFRIHNIFRNKEMNPHQVELDMVDLCHRHGADWDHWIAAYRYRIAQGSYRPDLAPNVPREAGGLSMHELLSGIEEEQGEDGLRAFFDELNACAPEGRARLRAEGMLKHRPLDLDGAMQKQFPK
soluble on expression in E. coli: not soluble

MGHTMPAHTPPAQTAPAAQKAGAQALPVTVQGATVAAVPPSIRDTAAYMTLTNKSDQPIKLVGAATPLATSPMLMTTTHSGGMAGMKMVPWLTIPARGTLTLQRDGDHVMLMGLKRPLKVGETVNITLKATDGRTLNVAATVKKNIEGR
soluble on expression in E. coli: soluble

MTSKTSESGTGTQSTIVQLRNLPDLTEISHLEIDAPVVEILKKTVLFQLNSLNICISNFALDELVNLVTVQMDGMFRNLHNLTLLQRRSQASQADLKLLLREFNLDAPSLYQQFQASEFIKSKHSTEYEKLMSWSSLAALPHNEEDEEDELNNIEEQQNEINVLLPPSNPLEKQIPSWLPNFPPDHTYKFTPEFNHPITDLKTIKKEIVKESQESEKALLNLNKSLSHISSASNTPQPPGLDDEDAIEQQLEIWGNALEERKPTITEKSFNENNIEQYAKYRVELARERVTKFEVNQLKRTKNPFLKISETLYLPESPHQSHKTIQKTIELQFRKSMTLFMHNLPKVQKLKKEKIRMAKEERAKSLKRRQEELISQRTKREQDEGHDLELLLNNEHARDAADDTTTPNALNNSTIVINTNAEDEDDDINLFGILGSSEDENEMSSMPAENLVAESEPPTMTAQDTTNTTPVAHNTTNIDATTSHSPHSTPNENAPTSPPADIATDHDITM
soluble on expression in E. coli: soluble

MMRGGMGNMNNMMKQMQKMQKDMAKAQEELGEKTVEGTAGGGMITVIANGHKQILEVKIKEEVVDPEDIEMLQDLVLAATNDALKKADELSNSTMGKFTKGLNLPGGMF
soluble on expression in E. coli: not soluble

MGSDKIHHHHHHMNAQEERSRDWVSIRRPFAKAGLETMTARYIQQSFKPHAHDEYVIGIIEGGVHSVWCRGIHHNMPSGTVVTMHPGDVHYGNAAIAEGWKQRMIYISENEIGKFISDIAGGDKFLLPDFKQTFHDRPDLAHSFAQFHEVLHSSPLALARDVALDSIMRVTIGALSPDFVKAKDAKQPSGRIADAVEFLHNRIEDDVTLDELCDVAGLRRRQTIEAFKRCTGLPPHAYHVIQKVKAVKTMLRDGFSATEAAARAGFADQSHMTRHFVGVVGMTPGAYALDCQKKY
soluble on expression in E. coli: not soluble

MHIESPIKRRQSTRIYVGNVPIGDGAPIAVQSMTNTRTTDVDATVAQIKSLEKVGADIVRVSVPTMDAAEAFKVIKQQVSVPLVADIHFDYRIALQVAEYGVDCLRINPGNIGNEQRIRSVVDCARDKNIPIRIGVNGGSLEKDIQAKYKEPTAEALLESAMRHVDILDRLNFDQFKVSVKASDVFLAVDSYRLLAKQIAQPLHLGITEAGGARAGSVKSAVGLGMLLSEGIGDTLRISLAADPVEEIKVGFDILKSLRIRSRGINFIACPTCSRQEFDVIATVNELEQRLEDLITPMDVSLIGCVVNGPGEAEVSHMGIAGSNRKSAFYEDGVRQKERFDNDNIVDQLEAKIRAKAATLSKENQIDINQID
soluble on expression in E. coli: not soluble

MGSDKIHHHHHHMDYNQTVLSHLQKFWKHHDIKGFTWTLGRIVEELPDFQVFQVIPNHEDEPWVYVSSGIGQFLGQEFFIISPFETPEHIETLAMLASASMHYPDQFQLGKTVNIGRPWVEQSSFRHFLISLPYPYGQELEYMDNVRFFWLLPITQTERLFLNTHSVEELETKFDEAGIDYLDINRASTVWQAG
soluble on expression in E. coli: not soluble

MPSNDIQGLELPQSYFNAAAKRQKYAMKPGLSALEKNAVIKAAYRQIFERDITKAYSQSISYLESQVRNGDISMKEFVRRLAKSPLYRKQFFEPFINSRALELAFRHILGRGPSSREEVQKYFSIVSSGGLPALVDALVDSQEYADYFGEETVPYLRGLGVEALEHHHHHH
soluble on expression in E. coli: soluble

MSGSDRGDRLYDVLGVTRDATVQEIKTAYRKLALKHHPDKYVDQDSKEVNEIKFKEITAAYEILSDPEKKSHYDLYGDDNGAASSGG
soluble on expression in E. coli: not soluble

MSLTLPDFRLIRLLPLASLVLTACTLPGHKGPGKSPDSPQWRQHQQEVRHLNQYQTRGAFAYISDDQKVYARFFWQQTGQDRYRLLLTNPLGSTELELNAQPGNVQLVDNKGQRYTADDAEEMIGKLTGMPIPLNSLRQWILGLPGDATDYKLDDQYRLSEVNYRQDGKNWKVVYGGYDSKTQPAMPANMELSDGSQRIKLKMDNWIVKEGGSHHHHHH
soluble on expression in E. coli: soluble

MARFTDKVAIITGSSNGIGRATAVLLATDGAKVTITGRDAARLEETRQAILKAGISATNVNSVVADVTTAEGQDLLISSTLDKFGKINILINNAGANIPDSQGQTRTKCSIENLTKMFQLNLQSVVEMVQKVRPHLAKTRGEIVNISSIGAGPAAQPASPYYSSAKAALDQYSRCAAIDLISEGIRINVVQPGFVSTGFSTAARGLSADESVKFYDLMGSLPHCIPAGYCGQPDHLASVIAFLVDRKVSEYIVGQTIIADGGSSLVIGCHAPRQ
soluble on expression in E. coli: not soluble

GPGSMSTTAHATSMGPLPYPNALQSRHTTTEQRQIAAAAVRAYQGTLEQEKVLLQENDALLSEEEAGRLQRRVDNQAAADATAAQFRDRACKVVASVPGEQHQSEGGVIDIFHAACDGDVAALDACLRSASDINALGQPDPARYNGFQFKQRWLFRAPPLVFAAAFGREEAVRLLLEHGADPHVASTTGLRAQDYAAQRGYSAIVLMLTSGAPQ
soluble on expression in E. coli: soluble

MSLRTLAVETSCDETALAIYDDQKGVLGNVILSQAVVHSPFGGVVPELSAREHTRNILPIFDRLLKESRINLEEIDFISFTLTPGLILSLVVGVAFAKALAYEYRKPLVPVHHLEGHIYSVFLEKKVEYPFLALIISGGHTDLYLVRDFGRYDFLGGTLDDAVGEAYDKVAKMLGLGYPGGPIIDRLAKEGKKLYPLPKPLMEEGNLNFSFSGLKTAILNLLKKEKNVRKEDIAYSFQETVVEILLEKSLWAMKKTGIKRLVVVGGVSANSRLREVFKKASQEYGFELYIPHPSLSTDNALMIAYAGMERFKRGVVAPLDVNPQPNIPLEEFGRIWTEGHHHHHH
soluble on expression in E. coli: soluble

MAHHHHHHMHTYTTQPCATSTSVPQLTRLSVSSSGHSPAVPTNWSIGRPTTLRCRDTDSDVHCNWGAIQGEDEEDKESLIGCATQVWRISAEVQMPLQCSHGTRATEEETLLGAPTSHCGDHLTNGRGVFASSPPIVWQPAPLPASFSASQIDLSGGGQDNAVLLSGAPVGSAEEETHNDNREVTRSNVIPATGDIAATESNDSFVGLEAAPRKGYARSNSGTPPRSDLGSPNNAANLQAHGRAANGVSAGVELVYRAAASETNSHHFGASLCANIGSGCRARLGIPAEWRDHMCAATPQGRGVWVQVPGQLRESEYPASTTTAEAVAARLAHISIHTSPTPKRLAFEEEELVERVSGGGSPTLIPAVRFVADGAARRGACNEASVAQGAGGSTEVGLLGRGAGGLSSSGMRWASVFGDSGHLELCSSRIPSGLQLLRSRKRCLDEMQATDTQERHADTLVTGGISDARDASYLVPDRVARMSLATPFENLEEDGDGDEEAVKRQRREEQRRMRLQHLLPASPNTMDDLIPAPARALGTAVAPCSSVSSSHVRSTVHGIQSTQDQQHQQDRTRNDDPASWSQVSSISYVTPASQSTSMGLWGVPGTLSQGHHGGAVVCSVGSGSQLLTPLPTNVMPQPSHKP
soluble on expression in E. coli: not soluble

MPSSSNSAAFSLDEFAKALDKHDYHAEKGQTVHGKICQHANEGVYVDFGGKSPGFVPVQELGLRPHAEIEDSFPLDSAWDFLVTSEQNDEGQVRLSRRQLQIQQSWENLAELEESGKTLEMVVTGTNKGGVVGDVEGLRGFIPRSHLMHKDNMDALVGQVLKAHILEANQDNNKLVLTQRRIQQAESMGKIAAGNIYEGKVAKIQPYGVFVEIEGVTGLLHVSQVSGTRVDSLNTLFAFGQAISVYVQEIDEYKNRISLSTRILETYPGELVEKFDEMMADAPNRLPLVQSKQNLGDKQEQLEKSLEHHHHHH
soluble on expression in E. coli: not soluble

MSLKKEGDATAVLIGYPSVGKSTLLNKLTGAKSEVADYDFTTLKPVPGILNYKGASIQIIDVPGIIEGAASGRGRGKEVISAVRVADLIIIVADVFNLHTIDIVKRELYEGGIRLDQKPPDVVIRKKERGGVRISSTVPLSIDEATITSVLKEYKIHSADVVIREDITIERLIDALAGNRVYIPSLTVVNKIDLMDVDVADAIKVSAEKGINLDLLKEQIYRKLEFIRVYLKPPGGKVDFSEPMILRRGATVEDICRKLHRDFVENFRYAKVWGKSVKFDGQRVGLEHVVEDGDIITIYAEGHHHHHH
soluble on expression in E. coli: soluble

MSERILPSTLRGVTNGQKEVTASVGERVPLLPRRFSARPQGNQEAQERTAVKCEQVRYAIQEVIGRGAFGEVSSAEVVGTRDLVAIKRVIHDGRLRQRELTLMRDHLGPNTQQGGVSSLDVGNGVGAHATSVTGSNGEEANGTTAIDGLESWNMPTIVPYHPCVVKLLDHFFASDPSGVQYLFMVMDYIPLDVRRLHHMFLRQREQQMPIILVKVIMFQLARALAFLHARGICHRDVKPNNILVDQETGVVKLCDFGSAKKMQAVGGEGPREKNVPYIFSRYYRAPELLLGSQYYHFHVDMWAFGCVLAELLCGKVLFKGSSSTMDQLVEIIKVLGKPSERELFALNPQSAGSALIRTWGDSHNASQLSPTPSGPLPSSNSANADYMQRRSAPRVKSLLWVEVLPPNTSQAALSLIEQLLRYTPEERLTSAEVLEHVFFDELFSDDARLPNGAPLPASMFQVTREEAEILPPWLLERMAAAEGVAKGRELNQSATAPENAI
soluble on expression in E. coli: not soluble

MLKKIREEFGCIFARDPAAQSFFEILTVYPGVHAVLIHRFSHWLWNHGLHWPARVLSYLARWATGIEIHPGATLGRRLFIDHGMGVVIGETAVIGDDCTLYHGVTLGGTSWQKGKRHPTLGNGVVVGAGAKVLGPITVGDGARIGSNSVVLRTVPAGATVVGIPGHIINPDRRAQEAQRLAIASRLGFDAYGMTPDMPDPVAHAINHMLDHIQALDQQVAKLKEVLRERGIDLEEAPLPDLDDCQLDPGEPQVTVNSSRTGLEHHHHHH
soluble on expression in E. coli: soluble

MVDQATLDKLEAGFKKLQEASDCKSLLKKHLTKDVFDSIKNKKTGMGATLLDVIQSGVENLDSGVGIYAPDAESYRTFGPLFDPIIDDYHGGFKLTDKHPPKQWGDINTLVGLDPAGQFIISTRVRCGRSLQGYPFNPCLTAEQYKEMEEKVSSTLSSMEDELKGTYYPLTGMSKATQQQLIDDHFLFKEGDRFLQTANACRYWPTGRGIFHNDAKTFLVWVNEEDHLRIISMQKGGDLKTVYKRLVTAVDNIESKLPFSHDDRFGFLTFCPTNLGTTMRASVHIQLPKLAKDRKVLEDIASKFNLQVRGTRGEHTESEGGVYDISNKRRLGLTEYQAVREMQDGILEMIKMEKAAA
soluble on expression in E. coli: soluble

MSLRLEGVVVPLITPFLEDYSIDKEGLKWLVSYLSENGVNGIFVNSSVGEFASLTLDEMKLVTKIALDSRKSYSTLIFAGASTNFTEETIKLAKDFKDMGVDAIVVMAPYFFKVREKELLDHFSMIAEKVDLPIIIYNIPLFTGIDIPISVYKMLVSQHSNIIGTKVTLDSLIFFKKLISEIREIRKDFSILTGFDEYLLPLLYMGGNGGVMGLANAIPKLHLKVYESWKNGNLSDANKYWRNVLNLTDIYDYCNSYTASIKLLLKVLNMPIKNVVRPPLSICEEESKIRGMIKDLSSFLTNSEGHHHHHH
soluble on expression in E. coli: soluble
